Data published in PMC11789342, “5-Aminolevulinic acid activates the MdWRKY71-MdMADS1 module to enhance anthocyanin biosynthesis in apple”.

B1: ProMdMADS1 W-box3 mutant probe (dsDNA)
DNA 1: CCTGAGGTTATTAACGCCAAAAGAAAA
DNA 2: TTTTCTTTTGGCGTTAATAACCTCAGG
B2: ProMdMADS1 W-box2 mutant probe (dsDNA)
DNA 1: ATTTACTATTTTTAGCATTACAATTT
DNA 2: AAATTGTAATGCTAAAAATAGTAAAT
B3: ProMdDFR W-box probe (dsDNA)
DNA 1: TGGGACTCTTCATTGACTCTCCGCCACATC
DNA 2: GATGTGGCGGAGAGTCAATGAAGAGTCCCA
B4: ProMdANS W-box probe (dsDNA)
DNA 1: ATCCCAGATGTGTTGACTGTTCATGCTCAG
DNA 2: CTGAGCATGAACAGTCAACACATCTGGGAT
B5: ProMdMADS1 W-box1 mutant probe (dsDNA)
DNA 1: ACTTTGTGGCTTTAGCATTTTGAAGA
DNA 2: TCTTCAAAATGCTAAAGCCACAAAGT

Molecular target: MdWRKY71 (Malus x domestica, UniProt A0A7S5AU16 1-327)
Experiment: EMSA; LightShift Chemiluminescent EMSA Kit per manufacturer; buffer, salt, pH and temperature not stated
Details: protein: recombinant; tags: His (pET32a); label: biotin

MdWRKY71, sequence (A0A7S5AU16 entry or part of it): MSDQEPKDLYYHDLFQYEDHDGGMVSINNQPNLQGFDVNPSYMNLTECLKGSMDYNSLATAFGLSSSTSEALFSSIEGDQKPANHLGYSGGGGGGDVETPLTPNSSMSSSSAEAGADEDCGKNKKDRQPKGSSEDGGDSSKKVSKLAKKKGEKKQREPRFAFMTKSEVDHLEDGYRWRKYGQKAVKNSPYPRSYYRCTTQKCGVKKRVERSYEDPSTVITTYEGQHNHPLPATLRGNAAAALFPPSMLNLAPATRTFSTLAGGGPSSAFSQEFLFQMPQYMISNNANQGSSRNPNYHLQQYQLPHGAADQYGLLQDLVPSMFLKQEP

Binder | binding result
B1 | no binding
B2 | no binding
B3 | binds
B4 | binds
B5 | no binding
